# In US20210355194A1 (TWIST BIOSCIENCE, published 2021):
# Molecular target: CV S-protein construct 6 trimer TP31001F (SARS-CoV-2, UniProt P0DTC2 14-1208)
# Test: SPR
row,Binder,Kd [pM]
1,variant 6-43 (Fc fusion) VHH: EVQLVESGGGLVQPGGSLRLSCAASGRTFSSYAMMGWFRQAPGKEREFVASVNWDASQINYADSVKGRFTISADNSKNTAYLQMNSLKPEDTAVYYCTTLGAVYFDSSGYHDYFDYWGQGTLVTVSS,700
2,variant 6-62 (Fc fusion) VHH: EVQLVESGGGLVQPGGSLRLSCAASGSTFSGNWMGWFRQAPGKEREFVAVISWTGGSTYYADSVKGRFTISADNSKNTAYLQMNSLKPEDTAVYYCATHNSLSGFDYWGQGTLVTVSS,198000
3,variant 6-36 (Fc fusion) VHH: EVQLVESGGGLVQPGGSLRLSCAASGFDFSVSWMGWFRQAPGKEREFVTAITWSGDSTNYADSVKGRFTISADNSKNTAYLQMNSLKPEDTAVYYCASLLHTGPSGGNYFDYWGQGTLVTVSS,800
4,variant 6-38 (Fc fusion) VHH: EVQLVESGGGLVQPGGSLRLSCAASGNTFSGGFMGWFRQAPGKEREFVAVISSLSSKSYADSVKGRFTISADNSKNTAYLQMNSLKPEDTAVYYCAKVDSGYDYWGQGTLVTVSS,500
5,variant 6-44 (Fc fusion) VHH: EVQLVESGGGLVQPGGSLRLSCAASGGTFGVYHMGWFRQAPGKEREFIGRITWTDGSTYYADSVKGRFTISADNSKNTAYLQMNSLKPEDTAVYYCFGLLEVYDMTFDYWGQGTLVTVSS,900
6,variant 6-34 (Fc fusion) VHH: EVQLVESGGGLVQPGGSLRLSCAASGSAFRSNAMGWFRQAPGKEREFVAHISWSSKSTYYADSVKGRFTISADNSKNTAYLQMNSLKPEDTAVYYCATYCSSTSCFDYWGQGTLVTVSS,700
7,variant 6-46 (Fc fusion) VHH: EVQLVESGGGLVQPGGSLRLSCAASGLTFSAMGWFRQAPGKEREFVALIRRDGSTIYADSVKGRFTISADNSKNTAYLQMNSLKPEDTAVYYCAALGILFGYDAFDIWGQGTLVTVSS,1900
8,variant 6-51 (Fc fusion) VHH: EVQLVESGGGLVQPGGSLRLSCAASGYTYSSYVMGWFRQAPGKEREFVAAISRFGSTYYADSVKGRFTISADNSKNTAYLQMNSLKPEDTAVYYCARDSGEHFWDSGYIDHWGQGTLVTVSS,800
9,variant 6-32 (Fc fusion) VHH: EVQLVESGGGLVQPGGSLRLSCAASGFTLDYYDMGWFRQAPGKEREFVALISWSGGSTYYADSVKGRFTISADNSKNTAYLQMNSLKPEDTAVYYCATDFYGWGTRERDAFDIWGQGTLVTVSS,100
10,variant 6-40 (Fc fusion) VHH: EVQLVESGGGLVQPGGSLRLSCAASGFTFSDYWMGWFRQAPGKERELVARVWWNGGSAYYADSVKGRFTISADNSKNTAYLQMNSLKPEDTAVYYCAREVLRQQVVLDYWGQGTLVTVSS,1900
11,variant 6-45 (Fc fusion) VHH: EVQLVESGGGLVQPGGSLRLSCAASGNMFSINAMGWFRQAPGKEREFVTLISWSSGRTSYADSVKGRFTISADNSKNTAYLQMNSLKPEDTAVYYCASLGYCSGGSCFDYWGQGTLVTVSS,1300
12,variant 6-28 (Fc fusion) VHH: EVQLVESGGGLVQPGGSLRLSCAASGDTYGSYWMGWFRQAPGKEREFVATITSDDRTNYADSVKGRFTISADNSKNTAYLQMNSLKPEDTAVYYCARVTSSLSGMDVWGQGTLVTVSS,400
13,variant 6-24 (Fc fusion) VHH: EVQLVESGGGLVQPGGSLRLSCAASGFTLDYYAMGWFRQAPGKEREFVAAINWSGDNTHYADSVKGRFTISADNSKNTAYLQMNSLKPEDTAVYYCARAPFYCTTTKCQDNYYYMDVWGQGTLVTVSS,200
14,variant 6-52 (Fc fusion) VHH: EVQLVESGGGLVQPGGSLRLSCAASGDTYGSYWMGWFRQAPGKEREVVAAITSGGSTVYADSVKGRFTISADNSKNTAYLQMNSLKPEDTAVYYCARVDSRFDYWGQGTLVTVSS,1100
15,"variant 6-55 (Fc fusion, VHH-Fc) VHH: EVQLVESGGGLVQPGGSLRLSCAASGFTMSSSWMGWFRQAPGKEREFVARITSGGSTGYADSVKGRFTISADNSKNTAYLQMNSLKPEDTAVYYCASVDGYFDYWGQGTLVTVSS",300
16,variant 6-39 (Fc fusion) VHH: EVQLVESGGGLVQPGGSLRLSCAASGFTFSPSWMGWFRQAPGKEREFVAAISWSGGSTAYADSVKGRFTISADNSKNTAYLQMNSLKPEDTAVYYCHGLGEGDPYGDYEGYFDLWGQGTLVTVSS,100
17,variant 6-49 (Fc fusion) VHH: EVQLVESGGGLVQPGGSLRLSCAASGSTVLINAMGWFRQAPGKEREFVAAISWSPGRTDYADSVKGRFTISADNSKNTAYLQMNSLKPEDTAVYYCARDCSGGSCYSGDYWGQGTLVTVSS,2200

row,Binder,Kd [pM]
1,variant 6-37 (Fc fusion) VHH: EVQLVESGGGLVQPGGSLRLSCAASGHTFSTSWMGWFRQAPGKEREFVATINSLGGTNYADSVKGRFTISADNSKNTAYLQMNSLKPEDTAVYYCARVSSGDYGMDVWGQGTLVTVSS,700
2,variant 6-41 (Fc fusion) VHH: EVQLVESGGGLVQPGGSLRLSCAASGFTFSTSWMGWFRQAPGKEREFVASINEYGGRNYADSVKGRFTISADNSKNTAYLQMNSLKPEDTAVYYCAGLHYYYDSSGYNPTEYYGMDVWGQGTLVTVSS,1000
3,variant 6-56 (Fc fusion) VHH: EVQLVESGGGLVQPGGSLRLSCAASGNIFRSNMGWFRQAPGKEREFVAGITWNGDTTYYADSVKGRFTISADNSKNTAYLQMNSLKPEDTAVYYCARALGVTYQFDYWGQGTLVTVSS,14900
4,variant 6-33 (Fc fusion) VHH: EVQLVESGGGLVQPGGSLRLSCAASGTFQRINHMGWFRQAPGKEREFVATINTGGQPNYADSVKGRFTISADNSKNTAYLQMNSLKPEDTAVYYCASLIAAQDYYFDYWGQGTLVTVSS,200
5,variant 6-42 (Fc fusion) VHH: EVQLVESGGGLVQPGGSLRLSCAASGDTYGSYWMGWFRQAPGKEREFVAVITSGGSTNYADSVKGRFTISADNSKNTAYLQMNSLKPEDTAVYYCTHVQNSYYYAMDVWGQGTLVTVSS,7800
6,variant 6-57 (Fc fusion) VHH: EVQLVESGGGLVQPGGSLRLSCAASGLTFDDHSMGWFRQAPGKEREFVAAVPLSGNTYYADSVKGRFTISADNSKNTAYLQMNSLKPEDTAVYYCASFSGGPADFDYWGQGTLVTVSS,700
7,variant 6-50 (Fc fusion) VHH: EVQLVESGGGLVQPGGSLRLSCAASGFSFDRWAMGWFRQAPGKEREWVASLATGGNTNYADSVKGRFTISADNSKNTAYLQMNSLKPEDTAVYYCARVTNYDAFDIWGQGTLVTVSS,67600
8,"variant 6-60 (Fc fusion, VHH-Fc) VHH: EVQLVESGGGLVQPGGSLRLSCAASGDTYGSYWMGWFRQAPGKEREFVATISQSGAATAYADSVKGRFTISADNSKNTAYLQMNSLKPEDTAVYYCAGLLRYSGTYYDAFDVWGQGTLVTVSS",100
9,variant 6-58 (Fc fusion) VHH: EVQLVESGGGLVQPGGSLRLSCAASGRAVSTYAMGWFRQAPGKEREFVAAISGSENVTSYADSVKGRFTISADNSKNTAYLQMNSLKPEDTAVYYCLSVTGDTEDYGVFDTWGQGTLVTVSS,1000
10,variant 6-47 (Fc fusion) VHH: EVQLVESGGGLVQPGGSLRLSCAASGRTFSMHAMGWFRQAPGKERELVASITYGGNINYADSVKGRFTISADNSKNTAYLQMNSLKPEDTAVYYCAKEGYYDSTGYRTYFQQWGQGTLVTVSS,5600
11,variant 6-53 (Fc fusion) VHH: EVQLVESGGGLVQPGGSLRLSCAASGISINTNVMGWFRQAPGKEREFVAAISTGSVTIYADSVKGRFTISADNSKNTAYLQMNSLKPEDTAVYYCARVDDFGYFDLWGQGTLVTVSS,24200
12,variant 6-54 (Fc fusion) VHH: EVQLVESGGGLVQPGGSLRLSCAASGFEFENHWMGWFRQAPGKEREYVAHITAGGLSNYADSVKGRFTISADNSKNTAYLQMNSLKPEDTAVYYCGRHWGIYDSSGFSSFDYWGQGTLVTVSS,900
13,variant 6-25 (Fc fusion) VHH: EVQLVESGGGLVQPGGSLRLSCAASGLTFGTYTMGWFRQAPGKEREFVAAISRFGSTYYADSVKGRFTISADNSKNTAYLQMNSLKPEDTAVYYCARGGDYDFWSVDYMDVWGQGTLVTVSS,5800
14,"variant 6-26 (Fc fusion, VHH-Fc) VHH: EVQLVESGGGLVQPGGSLRLSCAASGDTFSTSWMGWFRQAPGKEREFVATINTGGGTNYADSVKGRFTISADNSKNTAYLQMNSLKPEDTAVYYCARVTTSFDYWGQGTLVTVSS",100
15,variant 6-30 (Fc fusion) VHH: EVQLVESGGGLVQPGGSLRLSCAASGFAFGDSWMGWFRQAPGKEREFVATINWSGVTAYADSVKGRFTISADNSKNTAYLQMNSLKPEDTAVYYCARADGYFDYWGQGTLVTVSS,100
16,variant 6-77 (Fc fusion) VHH: EVQLVESGGGLVQPGGSLRLSCAASGFTFDRSWMGWFRQAPGKEREFVAAVTEGGTTSYADSVKGRFTISADNSKNTAYLQMNSLKPEDTAVYYCARADYDFDYWGQGTLVTVSS,3500
17,variant 6-31 (Fc fusion) VHH: EVQLVESGGGLVQPGGSLRLSCAASGDTFSANRMGWFRQAPGKEREFVASITWSSANTYYADSVKGRFTISADNSKNTAYLQMNSLKPEDTAVYYCATFNWNDEGFDFWGQGTLVTVSS,20700
